Residue numbers refer to the chain shown, from its start.

This assay relates to NL-Rluc virus. The experiment in a line: Combinectin potency assay: antiviral EC50, NL-Rluc virus in MT-2 cells, luciferase readout. It is filed as cell-based, HIV-1. The settings on record: Anti-N17 Adnectin, Table 3. As for the experimental part: MT-2 cells, HEK 293T cells and the proviral DNA clone of […] were obtained from the NIH AIDS Research and Reference Reagent Program. MT-2 cells were propagated in RPMI 1640 medium supplemented with 10% heat-inactivated fetal bovine serum (FBS), 10 mM HEPES buffer pH 7.55, and 2 mM L-glutamine. HEK 293T cells were propagated in DMEM media supplemented with 10% heat-inactivated FBS, 10 mM HEPES buffer pH 7.55 and 2 mM L-glutamine. Recombinant NL-Rluc virus, in which a section of the nef gene from the proviral clone of NL4-3 was replaced with the Renilla luciferase gene, was constructed at Bristol-Myers Squibb. The replication-competent virus was harvested 3 days after transfection of HEK 293T cells with the modified pNL-Rluc proviral clone. Transfections were performed using Lipofectamine Plus (Invitrogen, Carlsbad, Calif.), according to manufacturer's instruction. Virus was titered in MT-2 cells using luciferase enzyme activity as a biomarker. The NL-Rluc virus used to infect MT-2 cells a multiplicity of 0.01 for 1 hour before adding to the peptides in 96-well plates. Peptides were serially diluted three-fold and 11 concentrations were plated in triplicate. After 4-5 days of incubation, cells were processed and quantitated for virus growth by the amount of expressed luciferase. Luciferase was quantitated using the Dual Luciferase kit from Promega (Madison, Wis.), with modifications to the manufacturer's protocol. The diluted Passive Lysis solution was pre-mixed with the re-suspended Luciferase Assay Reagent and then re-suspended in STOP & GLO® Substrate (2:1:1 ratio). A total of […] of the mixture was added to each aspirated well on assay plates and luciferase activity was measured immediately on a Wallac TriLux (Perkin-Elmer, Waltham, Mass.). The 50% effective concentration (EC50) was calculated by comparing the amount of luciferase produced in the presence of inhibitory peptide compared to wells where no peptide was added.

B1: 157 (protein)
chain: MGVSDVPRDLEVVAATPTSLLISWQYKVHPYRYYRITYGETGGNSPVQEFTVPSVLSTATISGLKPGVDYTITVYAVTYGVNSIPISINYRTEIDKPSQHHHHHH
modifications: Adnectin
As for B1, the EC50 is 43 nM.

B2: 158 (protein)
chain: B1 chain with Q25E, P30Y, Y31D, V81I, N82Q, I84P
modifications: Adnectin
In the case of B2, the EC50 stood at 85 nM.

B3: 118 (protein)
chain: B1 chain with Q25K, I84L
modifications: Adnectin
Consider B3, for which the EC50 is 28 nM.

B4: 160 (protein)
chain: B1 chain with Q25E, H29D, N82E, I84S
modifications: Adnectin
As to B4, the EC50 turned out to be 58 nM.

B5: 119 (protein)
chain: MGVSDVPRDLEVVAATPTSLLISWDAPAVTVGWYHIGYNVEGEPASYQYFRVPGSKSTATISGLKPGVEYMIFVNAVTGSGAREEFSLPISINYRTEGSGSHHHHHH
modifications: Adnectin
Take B5: the EC50 is above 1000 nM.

B6: 159 (protein)
chain: MGHHHHHHGGSVSDVPRDLEVVAATPTSLLISWEYKVHPYRYYRITYGETGGNSPVQEFTVPSVLSTATISGLKPGVDYTITVYAVTYGDDSAPISIPYRTPGG
modifications: Adnectin
For B6, the EC50 came to 23 nM.

B7: 161 (protein)
chain: B6 chain with T67S, T69E, P98N, P102E, G103I, G104D
modifications: Adnectin
For B7, the 50% effective concentration (EC50) came out at 13 nM.

B8: 162 (protein)
chain: B6 chain with T67S, T69Q, P98N, P102E, G103I, G104D
modifications: Adnectin
As to B8, the concentration giving a half-maximal response (EC50) was 35 nM.

B9: 181 (protein)
chain: B6 chain with D91H, P98N, P102E, G103I, G104D
modifications: Adnectin
As for B9, the EC50 stood at 631 nM.

B10: 184 (protein)
chain: B6 chain with D91V, P98N, P102E, G103I, G104D
modifications: Adnectin
As to B10, the EC50 turned out to be 20 nM.

B11: 189 (protein)
chain: B6 chain with D90K, P98N, P102E, G103I, G104D
modifications: Adnectin
Take B11: the EC50 is above 1000 nM.

B12: 168 (protein)
chain: B6 chain with H38N, P39A, D90V, D91L, A93P, P98N, P102E, G103I, G104D
modifications: Adnectin
As for B12, the EC50 is 42 nM.

B13: 177 (protein)
chain: B6 chain
modifications: Adnectin
On to B13, for which the EC50 is 252 nM.

B14: 173 (protein)
chain: B6 chain with S11A, H38N, Y40W, D90V, D91H, A93S, P98N, P102E, G103I, G104D
modifications: Adnectin
For the molecule B14, the EC50 amounted to 5 nM.

B15: 166 (protein)
chain: B6 chain with E34K, K36N, V37L, D90I, D91I, A93E, P98N, P102E, G103I, G104D
modifications: Adnectin
With B15, the concentration giving a half-maximal response (EC50) came to 50 nM.

B16: 174 (protein)
chain: B6 chain with K36N, H38N, P39A, D90I, D91I, A93E, P98N, P102E, G103I, G104D
modifications: Adnectin
Consider B16, for which the EC50 came out at 5 nM.

B17: 176 (protein)
chain: B6 chain with P39H, Y40D, D90I, D91E, A93S, P98N, P102E, G103I, G104D
modifications: Adnectin
Consider B17, for which the EC50 is above 1000 nM.

B18: 164 (protein)
chain: B6 chain with E34K, K36Q, P39A, D90V, D91Y, P98N, P102E, G103I, G104D
modifications: Adnectin
With B18, the EC50 was 35 nM.

B19: 182 (protein)
chain: B6 chain with D91Q, P98N, P102E, G103I, G104D
modifications: Adnectin
Take B19: the EC50 is above 1000 nM.

B20: 195 (protein)
chain: B6 chain with A93Q, P98N, P102E, G103I, G104D
modifications: Adnectin
B20: the EC50 is above 1000 nM.

B21: 179 (protein)
chain: B6 chain with A93R, P98N, P102E, G103I, G104D
modifications: Adnectin
Turning to B21, the 50% effective concentration (EC50) is above 1000 nM.

B22: 192 (protein)
chain: B6 chain with D90T, P98N, P102E, G103I, G104D
modifications: Adnectin
As to B22, the EC50 was 2830 nM.

B23: 186 (protein)
chain: B6 chain with D90E, P98N, P102E, G103I, G104D
modifications: Adnectin
With B23, the EC50 came to 2830 nM.

B24: 190 (protein)
chain: B6 chain with D90A, P98N, P102E, G103I, G104D
modifications: Adnectin
Regarding B24, the EC50 is above 1000 nM.

B25: 165 (protein)
chain: B6 chain with H38N, D90V, D91H, A93S, P98N, P102E, G103I, G104D
modifications: Adnectin
For the molecule B25, the EC50 amounted to 42 nM.

B26: 170 (protein)
chain: B6 chain with H38S, Y88F, D90I, D91R, A93S, P98N, P102E, G103I, G104D
modifications: Adnectin
On to B26, for which the EC50 stood at 5 nM.

B27: 191 (protein)
chain: B6 chain with D90T, P98N, P102E, G103I, G104D
modifications: Adnectin
As for B27, the EC50 is above 1000 nM.

B28: 180 (protein)
chain: B6 chain with D90K, P98N, P102E, G103I, G104D
modifications: Adnectin
As to B28, the EC50 was above 1000 nM.

B29: 171 (protein)
chain: B6 chain with E34K, K36Q, P39A, D90I, D91I, A93E, P98N, P102E, G103I, G104D
modifications: Adnectin
Turning to B29, the concentration for a half-maximal effect (EC50) came to 35 nM.

B30: 193 (protein)
chain: B6 chain with D90K, P98N, P102E, G103I, G104D
modifications: Adnectin
Turning to B30, the EC50 was found to be 252 nM.

B31: 183 (protein)
chain: B6 chain with D90I, P98N, P102E, G103I, G104D
modifications: Adnectin
Take B31: the half-maximal effective concentration (EC50) came to 20 nM.

B32: 187 (protein)
chain: B6 chain with T60K, P98N, P102E, G103I, G104D
modifications: Adnectin
As to B32, the concentration giving a half-maximal response (EC50) came to 86 nM.

B33: 175 (protein)
chain: B6 chain with P39Y, Y40D, D90V, D91Q, A93T, P98N, P102E, G103I, G104D
modifications: Adnectin
For the molecule B33, the half-maximal effective concentration (EC50) stood at 5 nM.

B34: 167 (protein)
chain: B6 chain with K36R, H38N, D90V, D91Q, A93P, P98N, P102E, G103I, G104D
modifications: Adnectin
As to B34, the 50% effective concentration (EC50) was determined as 42 nM.

B35: 188 (protein)
chain: B6 chain with D91L, P98N, P102E, G103I, G104D
modifications: Adnectin
Regarding B35, the concentration for a half-maximal effect (EC50) was found to be 86 nM.

B36: 163 (protein)
chain: B6 chain with D18Y, E34Q, Y42W, D90V, D91N, A93I, P98N, P102E, G103I, G104D
modifications: Adnectin
With B36, the EC50 came out at 35 nM.

B37: 172 (protein)
chain: B6 chain with H38D, D90I, A93S, P98N, P102E, G103I, G104D
modifications: Adnectin
For B37, the EC50 is 5 nM.

B38: 169 (protein)
chain: B6 chain with K36N, H38N, Y88R, D90V, P98N, P102E, G103I, G104D
modifications: Adnectin
Regarding B38, the half-maximal effective concentration (EC50) came out at 5 nM.

B39: 194 (protein)
chain: B6 chain with D91P, P98N, P102E, G103I, G104D
modifications: Adnectin
On to B39, for which the EC50 is above 1000 nM.

B40: 120 (protein)
chain: MGHHHHHHGGVSDVPRDLEVVAATPTSLLISWEYNVNPYRYYRITYGETGGNSPVQEFTVPSVLSSAQISGLKPGVDYTITVYAVTRGVDSAPISINYRTPGG
modifications: Adnectin
For the molecule B40, the EC50 was found to be 39 nM.

B41: 121 (protein)
chain: B40 chain with S66T, Q68E, R87Y, A92D
modifications: Adnectin
On to B41, for which the EC50 came out at 57 nM.

As a reminder, the EC50 is the concentration needed to bring the measured effect to its halfway point.

The values above are taken from patent US11155602B2, “Polypeptides targeting HIV fusion” (priority 2015, dated 2021).
